Experimental data from PMC9665036.

How the values were obtained:
[1] = biological target: SpyCatcher-AP205 capsid virus-like particle (cVLP) (Acinetobacter phage AP205); experiment: covalent SpyTag-SpyCatcher coupling, SDS-PAGE densitometry; SpyTagged sE2 mixed with SpyCatcher-AP205 cVLP at molar ratio 2:1 (antigen per cVLP binding site), 36 h at 4 °C; Coomassie SDS-PAGE, densitometry (ImageQuantTL)
[2] = biological target: oligomeric soluble HCV E2 (sE2, Con1 isolate, genotype 1b) with C-terminal 6x His tag and SpyTag, SEC peak 2 (Hepatitis C virus, isolate Con1 (genotype 1b)) (UniProt Q9WMX2); experiment: SEC; analytical SEC of the purified sE2 SEC peak fractions against marker proteins of known size
[3] = biological target: oligomeric soluble HCV E2 (sE2, Con1 isolate, genotype 1b) with C-terminal 6x His tag and SpyTag, SEC peak 2 (Hepatitis C virus, isolate Con1 (genotype 1b)) (UniProt Q9WMX2); experiment: non-reducing SDS-PAGE; SEC peaks of sE2 in SDS-PAGE, Coomassie staining, with or without reducing agent (DTT)

monomeric soluble HCV E2 (sE2, Con1 isolate, genotype 1b) with C-terminal 6x His tag and SpyTag, SEC peak 1 (from UniProt Q9WMX2 384-661) (domain or fragment)
coupling efficiency [1]: 60%

oligomeric soluble HCV E2 (sE2, Con1 isolate, genotype 1b) with C-terminal 6x His tag and SpyTag, SEC peak 2 (from UniProt Q9WMX2 384-661) (domain or fragment)
stoichiometry N [2]: 4
stoichiometry N [3]: 2
coupling efficiency [1]: 60%
